# Source: publication PMC12713436 (2025)
# B1: frutalin (FTL), galactose-specific jacalin-related lectin from Artocarpus altilis (syn. Artocarpus incisa) seeds (natural protein)
# chain 1: GKAFDDGAFTGIREINLSYNKETAIGDFQVIYDLNGSPFVGQNHTSFITGFTPVKISLDFPSEYIIEVSGHTGKVSGYVVVRSLAFKTNKKTYGPYGVTSGTPFNLPIENGLIVGFKGSIGYWLDYFSMYLSL
# chain 2: AEQSGKSQTVIVGPWGAQVS
# modifications: α-chain glycoisoforms (differential glycosylation and limited proteolysis)
# Biological target: secretory immunoglobulin A1 (sIgA1) from human colostrum (human (endogenous in colostrum), UniProt P01591 23-159; P01833 19-603, dense O-glycosylation, predominantly in the hinge region)
# Sequence (chain, as listed by the source, chain 1 of 3): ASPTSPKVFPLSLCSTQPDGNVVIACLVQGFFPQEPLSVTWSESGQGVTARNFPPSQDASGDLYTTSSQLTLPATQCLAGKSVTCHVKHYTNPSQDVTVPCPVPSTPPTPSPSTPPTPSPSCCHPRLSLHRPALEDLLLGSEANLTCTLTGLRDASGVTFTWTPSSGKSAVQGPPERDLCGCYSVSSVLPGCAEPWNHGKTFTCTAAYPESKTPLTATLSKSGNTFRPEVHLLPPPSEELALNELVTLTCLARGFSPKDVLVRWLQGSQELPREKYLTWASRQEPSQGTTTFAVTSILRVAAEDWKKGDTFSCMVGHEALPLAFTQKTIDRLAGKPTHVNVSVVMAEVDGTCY
# Sequence (P01591 23-159, chain 2 of 3): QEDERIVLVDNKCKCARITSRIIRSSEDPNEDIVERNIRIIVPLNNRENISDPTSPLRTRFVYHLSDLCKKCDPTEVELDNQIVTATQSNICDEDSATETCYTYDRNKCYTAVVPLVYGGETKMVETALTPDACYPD
# Sequence (P01833 19-603, chain 3 of 3): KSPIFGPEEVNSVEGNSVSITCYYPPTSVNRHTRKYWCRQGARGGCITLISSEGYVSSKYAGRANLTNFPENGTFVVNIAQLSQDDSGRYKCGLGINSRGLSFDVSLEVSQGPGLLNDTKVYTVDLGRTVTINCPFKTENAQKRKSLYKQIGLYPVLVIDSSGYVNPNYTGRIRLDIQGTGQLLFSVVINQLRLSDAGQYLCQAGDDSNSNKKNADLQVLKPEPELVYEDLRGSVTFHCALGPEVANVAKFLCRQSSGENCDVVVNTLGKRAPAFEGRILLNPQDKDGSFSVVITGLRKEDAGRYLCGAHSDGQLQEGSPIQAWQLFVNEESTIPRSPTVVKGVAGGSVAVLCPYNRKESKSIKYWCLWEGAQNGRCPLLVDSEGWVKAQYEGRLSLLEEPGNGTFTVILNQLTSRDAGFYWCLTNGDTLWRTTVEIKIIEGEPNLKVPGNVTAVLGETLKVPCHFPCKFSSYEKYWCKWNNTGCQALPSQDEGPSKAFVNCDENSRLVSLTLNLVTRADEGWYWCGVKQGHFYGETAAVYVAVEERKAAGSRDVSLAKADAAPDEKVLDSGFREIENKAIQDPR
# Test: apparent Kd from DLS Hill fit, h = 2.04
binder,measurement,value
B1,Kd,930 nM
